Laboratory results from patent US20220185875A1 (JIANGSU HENGRUI MEDICINE, published 2022).

T1: human ANG1 (RD,923-AN) (human, UniProt Q15389 20-498, limits assumed)
T1 sequence (looked up): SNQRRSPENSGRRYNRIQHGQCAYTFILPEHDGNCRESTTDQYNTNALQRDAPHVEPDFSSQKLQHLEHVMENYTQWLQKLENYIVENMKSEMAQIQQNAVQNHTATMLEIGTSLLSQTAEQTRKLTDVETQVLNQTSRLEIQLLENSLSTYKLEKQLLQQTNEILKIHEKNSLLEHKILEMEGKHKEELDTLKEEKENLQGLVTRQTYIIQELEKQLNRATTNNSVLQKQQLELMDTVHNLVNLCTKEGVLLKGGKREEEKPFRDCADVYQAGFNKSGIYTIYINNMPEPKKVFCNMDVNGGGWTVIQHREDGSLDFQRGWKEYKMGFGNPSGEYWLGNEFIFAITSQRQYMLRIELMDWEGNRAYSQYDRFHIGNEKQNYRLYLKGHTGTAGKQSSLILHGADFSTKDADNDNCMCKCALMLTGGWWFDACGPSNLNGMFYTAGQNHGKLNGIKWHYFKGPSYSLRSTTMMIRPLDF

T2: biotin-hAng2-His (sinobiological, 10691-H07H) (human, UniProt O15123 19-496, biotin label, position not stated)
T2 construct: Bought reagent; also called Human ANG2-his; human ANG2
T2 sequence (looked up): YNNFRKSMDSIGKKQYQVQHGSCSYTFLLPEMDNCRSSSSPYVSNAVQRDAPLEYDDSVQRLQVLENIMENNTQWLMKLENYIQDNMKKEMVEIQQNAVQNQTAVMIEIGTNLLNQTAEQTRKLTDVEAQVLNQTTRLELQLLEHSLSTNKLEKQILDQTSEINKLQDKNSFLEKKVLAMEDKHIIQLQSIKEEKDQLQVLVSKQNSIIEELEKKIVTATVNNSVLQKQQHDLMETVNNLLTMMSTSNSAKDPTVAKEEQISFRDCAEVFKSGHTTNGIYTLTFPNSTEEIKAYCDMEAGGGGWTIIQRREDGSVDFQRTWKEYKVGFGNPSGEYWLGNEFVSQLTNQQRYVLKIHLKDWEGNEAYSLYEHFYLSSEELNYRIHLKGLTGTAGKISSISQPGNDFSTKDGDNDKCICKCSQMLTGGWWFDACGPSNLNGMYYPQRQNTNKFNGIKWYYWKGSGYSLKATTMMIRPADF


Experiments:
[1] = molecular target: T3, human ANG2 with human Fc tag (huANG2-Fc) (human, biotin label (Dojindo kit LK03, position not stated) in Test Examples 3 and 4; unlabelled in Test Example 5); experiment: competition ELISA: Tie2-Fc coated, biotin-huANG2-Fc 0.15 ug/ml premixed with antibody; blocking of ANG2 binding to Tie2
T3 construct: It starts at YNNFRK, without a signal peptide; also called bio-huANG2-Fc; human Ang2-Fc
Procedure: Specific methods: the ELISA plate was coated with Tie2-Fc (SEQ ID NO: 2, 3 μg/ml dissolved in PBS, 100 μl/well) overnight at 4° C. and the coating solution was removed, 5% skimmed milk blocking solution diluted with PBS was added at 200 μl/well and incubated in a 37° C. incubator for 2 h for blocking. After the blocking was completed, the blocking solution was discarded and the plate was washed with PBST buffer (PBS containing 0.05% tween-20, pH 7.4) for 5 times. […] The solution was mixed well and then incubated at 37° C. for 15 min, added to the ELISA plate and incubated at 37° C. for 1 h. After the incubation was completed, the reaction solution in the ELISA plate was discarded and the plate was washed 5 times with PB ST. Then 1:4000 diluted streptavidin-peroxidase polymer (Sigma, 52438-250UG) was added at 100 μl/well and incubated at 37° C. for 1 h. After washing the plate 5 times with PBST, 100 μl/well TMB chromogenic substrate (KPL, 52-00-03) was added and incubated at room temperature for 3-10 min, and 1 M H₂SO₄ was added at 100 μl/well to stop the reaction.

[2] = molecular target: T1, human ANG1 (RD,923-AN); experiment: ELISA, plate coated with human ANG1, OD450
Procedure: (§1) The plate was coated with human ANG1 (RD,923-AN) at a concentration of 1 ng/μl, 100 μl per well overnight at 4° C. The supernatant was removed and 250 μl 5% skimmed milk powder was added for blocking at 37° C. for 1 h. The plate was washed with a washing machine for 3 times, and 100 μl 1:1 diluted phage supernatant was added and incubated at 37° C. for 1 h. The plate was washed with a washing machine for 3 times, and 100 μl 1:10000 diluted M13-HRP was added to each well and incubated at 37° C. for 1 h. The plate was washed with a washing machine for 3 times, and 100 μl TMB was added to each well for color development. After 5-10 min, 100 μl 1 M H₂SO₄ was added to each well to stop the color development, and the OD450 value was measured with a microplate reader.

[3] = molecular target: T2, biotin-hAng2-His (sinobiological, …); experiment: ELISA, biotin-hAng2-His captured on streptavidin plate, OD450
Procedure: as §1, with “streptavidin (abcam, ab123480)” for “human ANG1 (RD,923-AN)”, “C., and then the” for “C. The”, “removed.” for “removed and”, “blocking at 37° C. for 1 h, and the plate was washed with a washing machine for 3 times. 0.5 ng/μl biotin-hAng2-His (sinobiological, 10691-H07H) was added and incubated” for “blocking”, “anti-M13-HRP (GE, 27-9421-01)” for “M13-HRP”

IC50 [1] | binding result [2] | EC50 (read off the curve) [3] | Binder
39.3 pM | no binding (tested: 100 nM) | ~80 pM | Llama-derived single domain antibody nano14 (VHH) VHH: DVQLQESGGGLVQPGGSLRLSCAASGFTFDDFGMSWVRQAPGKGLEWVSSITWNGGSTYYADSVKGRFTISRDNAKNTVYLQMNSLKPEDTAIYYCNADHPQGYWGQGTQVTVSS
28.1 pM | no binding (tested: 100 nM) | ~60 pM | Llama-derived single domain antibody nano15 (VHH) VHH: DVQLQESGGGLVQPGGSLRLSCAASGFTFNSYAMSWVRQAPGKGLEWVSTINSGGGRTGYADSVKGRFTISRDNAKNTLYLQMNSLKPEDTAIYYCNADHPQGYWGQGTQVTVSS
